± gives the standard deviation of the averaged measurements.

Series [1] concerns MCF7. The series can be described thus: percentage of EdU-negative (G0-arrested) nuclei per well, 72 h; higher = more G0 arrest. Particulars: reference: sequence is the full UniProt precursor, the tested protein was the secreted form or ectodomain.
The subject of series [2] is hTERT-HMEC. Described as above. Particulars: reference: sequence is the full UniProt precursor, the tested protein was the secreted form or ectodomain.
Where [3] appears, read: protein concentration 0.0225 µM.
Where [4] appears, read: protein concentration 0.0307925 µM.
Where [5] appears, read: protein concentration 0.307925 µM.
Where [6] appears, read: protein concentration 0.0075 µM.
Setting [7] is: protein concentration 0.01477 µM.
[8] abbreviates: protein concentration 0.03125 µM.
[9] abbreviates: protein concentration 0.1477 µM.
Where [10] appears, read: protein concentration 0.3125 µM.
Setting [11] is: protein concentration 0.02075 µM.
Setting [12] is: protein concentration 0.2075 µM.
The mark [13] stands for this setting: protein concentration 0.01025 µM.
The mark [14] stands for this setting: protein concentration 0.1025 µM.
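Note: secreted proteins added to cultured cells, EdU pulse at the end, nuclei found by Hoechst imaging, EdU status from nuclear versus surrounding ring intensity ratio, PBS as neutral control.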

As to “MAFDVSCFFWVVLFSAGCKVITSWDQMCIEKEANKTYNCENLGLSEIPDTLPNTTEFLEFSFNFLPTIHNRTFSRLMNLTFLDLTRCQINWIHEDTFQSHHQLSTLVLTGNPLIFMAETSLNGPKSLKHLFLIQTGISNLEFIPVHNLENLESLYLGSNHISSIKFPKDFPARNLKVLDFQNNAIHYISREDMRSLEQAINLSLNFNGNNVKGIELGAFDSTIFQSLNFGGTPNLSVIFNGLQNSTTQSLWLGTFEDIDDEDISSAMLKGLCEMSVESLNLQEHRFSDISSTTFQCFTQLQELDLTATHLKGLPSGMKGLNLLKKLVLSVNHFDQLCQISAANFPSLTHLYIRGNVKKLHLGVGCLEKLGNLQTLDLSHNDIEASDCCSLQLKNLSHLQTLNLSHNEPLGLQSQAFKECPQLELLDLAFTRLHINAPQSPFQNLHFLQVLNLTYCFLDTSNQHLLAGLPVLRHLNLKGNHFQDGTITKTNLLQTVGSLEVLILSSCGLLSIDQQAFHSLGKMSHVDLSHNSLTCDSIDSLSHLKGIYLNLAANSINIISPRLLPILSQQSTINLSHNPLDCTCSNIHFLTWYKENLHKLEGSEETTCANPPSLRGVKLSDVKLSCGITAIGIFFLIVFLLLLAILLFFAVKYLLRWKYQHI”, the “percentage of EdU-negative” value in series [1] (setting [3]) worked out at 27.1 ± 4.8%; in series [1] (protein concentration 0.225 µM), 29.8 ± 3.2%; in series [2] (setting [3]), 5.21 ± 0.11%; in series [2] (protein concentration 0.225 µM), 7.06 ± 0.86%.
As to “MAFLGLFSLLVLQSMATGATFPEEAIADLSVNMYNRLRATGEDENILFSPLSIALAMGMMELGAQGSTQKEIRHSMGYDSLKNGEEFSFLKEFSNMVTAKESQYVMKIANSLFVQNGFHVNEEFLQMMKKYFNAAVNHVDFSQNVAVANYINKWVENNTNNLVKDLVSPRDFDAATYLALINAVYFKGNWKSQFRPENTRTFSFTKDDESEVQIPMMYQQGEFYYGEFSDGSNEAGGIYQVLEIPYEGDEISMMLVLSRQEVPLATLEPLVKAQLVEEWANSVKKQKVEVYLPRFTVEQEIDLKDVLKALGITEIFIKDANLTGLSDNKEIFLSKAIHKSFLEVNEEGSEAAAVSGMIAISRMAVLYPQVIVDHPFFFLIRNRRTGTILFMGRVMHPETMNTSGHDFEEL”, the “percentage of EdU-negative” value in series [1] (setting [4]) stood at 22.8 ± 1.4%; in series [1] (setting [5]), 27.7 ± 2.1%; in series [2] (setting [4]), 4.97 ± 0.78%; in series [2] (setting [5]) it was 49.1 ± 2.1%.
As to “MAFLPSWVCVLVGSFSASLAGTSNLSETEPPLWKESPGQLSDYRVENSMYIINPWVYLERMGMYKIILNQTARYFAKFAPDNEQNILWGLPLQYGWQYRTGRLADPTRRTNCGYESGDHMCISVDSWWADLNYFLSSLPFLAAVDSGVMGISSDQVRLLPPPKNERKFCYDVSSCRSSFPETMNKWNTFYQYLQSPFSKFDDLLKYLWAAHTSTLADNIKSFEDRYDYYSKAEAHFERSWVLAVDHLAAVLFPTTLIRSYKFQKGMPPRILLNTDVAPFISDFTAFQNVVLVLLNMLDNVDKSIGYLCTEKSNVYRDHSESSSRSYGNNS [Q6P5S2]”, the “percentage of EdU-negative” value in series [1] (setting [3]) stood at 25.7 ± 0.86%; in series [1] (protein concentration 0.225 µM) it was 26.6 ± 0.54%; in series [2] (setting [3]) it was 4.92 ± 0.16%; in series [2] (protein concentration 0.225 µM) it was 5.82 ± 0.65%.
For “MAFPPRRRLRLGPRGLPLLLSGLLLPLCRAFNLDVDSPAEYSGPEGSYFGFAVDFFVPSASSRMFLLVGAPKANTTQPGIVEGGQVLKCDWSSTRRCQPIEFDATGNRDYAKDDPLEFKSHQWFGASVRSKQDKILACAPLYHWRTEMKQEREPVGTCFLQDGTKTVEYAPCRSQDIDADGQGFCQGGFSIDFTKADRVLLGGPGSFYWQGQLISDQVAEIVSKYDPNVYSIKYNNQLATRTAQAIFDDSYLGYSVAVGDFNGDGIDDFVSGVPRAARTLGMVYIYDGKNMSSLYNFTGEQMAAYFGFSVAATDINGDDYADVFIGAPLFMDRGSDGKLQEVGQVSVSLQRASGDFQTTKLNGFEVFARFGSAIAPLGDLDQDGFNDIAIAAPYGGEDKKGIVYIFNGRSTGLNAVPSQILEGQWAARSMPPSFGYSMKGATDIDKNGYPDLIVGAFGVDRAILYRARPVITVNAGLEVYPSILNQDNKTCSLPGTALKVSCFNVRFCLKADGKGVLPRKLNFQVELLLDKLKQKGAIRRALFLYSRSPSHSKNMTISRGGLMQCEELIAYLRDESEFRDKLTPITIFMEYRLDYRTAADTTGLQPILNQFTPANISRQAHILLDCGEDNVCKPKLEVSVDSDQKKIYIGDDNPLTLIVKAQNQGEGAYEAELIVSIPLQADFIGVVRNNEALARLSCAFKTENQTRQVVCDLGNPMKAGTQLLAGLRFSVHQQSEMDTSVKFDLQIQSSNLFDKVSPVVSHKVDLAVLAAVEIRGVSSPDHVFLPIPNWEHKENPETEEDVGPVVQHIYELRNNGPSSFSKAMLHLQWPYKYNNNTLLYILHYDIDGPMNCTSDMEINPLRIKISSLQTTEKNDTVAGQGERDHLITKRDLALSEGDIHTLGCGVAQCLKIVCQVGRLDRGKSAILYVKSLLWTETFMNKENQNHSYSLKSSASFNVIEFPYKNLPIEDITNSTLVTTNVTWGIQPAPMPVPVWVIILAVLAGLLLLAVLVFVMYRMGFFKRVRPPQEEQEREQLQPHENGEGNSET”, the “percentage of EdU-negative” value in series [1] (setting [6]) was found to be 25.7 ± 3.1%; in series [1] (protein concentration 0.075 µM) it was 28.8 ± 2%; in series [2] (setting [6]), 5.23 ± 0.5%; in series [2] (protein concentration 0.075 µM), 7.03 ± 1%.
On to “MAFRGWRPPPPPLLLLLLWVTGQAAPVAGLGSDAELQIERRFVPDECPRTVRSGDFVRYHYVGTFPDGQKFDSSYDRDSTFNVFVGKGQLITGMDQALVGMCVNERRFVKIPPKLAYGNEGVSGVIPPNSVLHFDVLLMDIWNSEDQVQIHTYFKPPSCPRTIQVSDFVRYHYNGTFLDGTLFDSSHNRMKTYDTYVGIGWLIPGMDKGLLGMCVGEKRIITIPPFLAYGEDGDGKDIPGQASLVFDVALLDLHNPKDSISIENKVVPENCERISQSGDFLRYHYNGTLLDGTLFDSSYSRNRTFDTYIGQGYVIPGMDEGLLGVCIGEKRRIVVPPHLGYGEEGRGNIPGSAVLVFDIHVIDFHNPSDSISITSHYKPPDCSVLSKKGDYLKYHYNASLLDGTLLDSTWNLGKTYNIVLGSGQVVLGMDMGLREMCVGEKRTVIIPPHLGYGEAGVDGEVPGSAVLVFDIELLELVAGLPEGYMFIWNGEVSPNLFEEIDKDGNGEVLLEEFSEYIHAQVASGKGKLAPGFDAELIVKNMFTNQDRNGDGKVTAEEFKLKDQEAKHDEL”, for which the “percentage of EdU-negative” value is 29.6 ± 1.2% in series [1] (setting [3]), 28.6 ± 3% in series [1] (protein concentration 0.225 µM), 5.15 ± 0.31% in series [2] (setting [3]) and 25.4 ± 1.1% in series [2] (protein concentration 0.225 µM).
For the sequence “MAFSGSQAPYLSPAVPFSGTIQGGLQDGLQITVNGTVLSSSGTRFAVNFQTGFSGNDIAFHFNPRFEDGGYVVCNTRQNGSWGPEERKTHMPFQKGMPFDLCFLVQSSDFKVMVNGILFVQYFHRVPFHRVDTISVNGSVQLSYISFQNPRTVPVQPAFSTVPFSQPVCFPPRPRGRRQKPPGVWPANPAPITQTVIHTVQSAPGQMFSTPAIPPMMYPHPAYPMPFITTILGGLYPSKSILLSGTVLPSAQRFHINLCSGNHIAFHLNPRFDENAVVRNTQIDNSWGSEERSLPRKMPFVRGQSFSVWILCEAHCLKVAVDGQHLFEYYHRLRNLPTINRLEVGGDIQLTHVQT”, the “percentage of EdU-negative” value in series [1] (setting [7]) is 30.2 ± 1.1%; in series [1] (setting [8]), 26.3 ± 2.5%; in series [1] (setting [9]), 39.3 ± 0.83%; in series [1] (setting [10]) it was 26.3 ± 0.4%; in series [2] (setting [7]) it was 5.5 ± 0.22%; in series [2] (setting [8]), 4.97 ± 0.35%. Further, the “percentage of EdU-negative” value in series [2] (setting [9]) was determined as 9.26 ± 0.15%; in series [2] (setting [10]), 4.66 ± 0.35%.
Take “MAFVCLAIGCLYTFLISTTFGCTSSSDTEIKVNPPQDFEIVDPGYLGYLYLQWQPPLSLDHFKECTVEYELKYRNIGSETWKTIITKNLHYKDGFDLNKGIEAKIHTLLPWQCTNGSEVQSSWAETTYWISPQGIPETKVQDMDCVYYNWQYLLCSWKPGIGVLLDTNYNLFYWYEGLDHALQCVDYIKADGQNIGCRFPYLEASDYKDFYICVNGSSENKPIRSSYFTFQLQNIVKPLPPVYLTFTRESSCEIKLKWSIPLGPIPARCFDYEIEIREDDTTLVTATVENETYTLKTTNETRQLCFVVRSKVNIYCSDDGIWSEWSDKQCWEGEDLSKKTLLRFWLPFGFILILVIFVTGLLLRKPNTYPKMIPEFFCDT”: the “percentage of EdU-negative” value in series [1] (setting [11]) was 26.8 ± 0.36%; in series [1] (setting [12]), 29.3 ± 0.53%; in series [2] (setting [11]) it was 4.91 ± 0.34%; in series [2] (setting [12]), 9.86 ± 0.6%.
On to “MAGGRETCLPLIGFILICLKMVASAKSAPEIPTIDQAYSKLSNSITVEWATVPGATSYLLTAEDGDTVIETTVANSPGTVTGLKAATWYEITIRSISAAGRSQASPPKQAKTVLAAPILEVSSPSSDSILVQWEAVYMAIAFSVSIMRANGLGSIWKENTTNTSLTFTSLEAGTLYTIKAYAWNANRIPGDDSTCNQRTSPRAPANIQVSFDSGALKASFSWARAEGAFNYTVMALSDSSELTCSTTFSSCTISSLQCGTEYLISVLASNDAGSSKSSSAMTLKTVACAPGRVTIQEDPPGHLSVAWSSVDLGDYYVVFVKSDDGLEVHCNTSLTQCNFLSECGFTYFISVFVYNKAGQSPLGDIFNYTTAPCCPSDINPVLVSSDRVEIVWSPVRGAELYETKAVDGYNMVECNDTTPACTLSALECDTKYNITVYSFNEVRGSNMSCTPQFITTAPCSPEIKNVSRDAFSMINVHWRSTNDDATYTVTAQGEKGLYQCSSTGESCTMRGLPCGSVFSVTAVAETQAGRSLPSYSVPLETVPCCPTGLTVTQITQSVINVSWTIGRVAQTHVAVLESHTGQSKCHTHQNHCLLGCITCGINYTVTLKAISATGLTADCSYQSYFSGACCPLGVKLYRLGPNGIRIYWQASRGSANYSTDLYGSKGIFTCTPSAGLSFCDVTEIPCGDVYTVMVSPVAKTGLKLTFCPKKIYSVTCSGSTLGMVIYRGKRNEE [Q5VTL7]”, for which the “percentage of EdU-negative” value in series [1] (setting [13]) stood at 25.3 ± 0.94%; in series [1] (setting [14]), 35.5 ± 1%; in series [2] (setting [13]), 4.97 ± 0.23%; in series [2] (setting [14]), 35.6 ± 3.5%.

(Values after the supplement of paper PMC11316812.)
